Measurements published in PMC9091212.

Molecular target: TGFβRII (UniProt P37173)
Experiment: anti-FLAG IP, TGFβRII western blot
Conditions: reference: wild-type TGFβRI-FLAG; sites Y182

Substance: TGFβRI (from UniProt P36897) Y182F
- binding against the reference: weaker
